What was measured:
[1] = target: recombinant IL-6 (Sinobiological-10395-HNAE) (UniProt P05231 30-212); test: ELISA, cytokine coated
[2] = target: T1, recombinant IL-27 (R&D systems, 2526-IL-010) (UniProt Q8NEV9 29-243; Q14213 21-229); test: ELISA, cytokine coated
T1 sequence (looked up) 1: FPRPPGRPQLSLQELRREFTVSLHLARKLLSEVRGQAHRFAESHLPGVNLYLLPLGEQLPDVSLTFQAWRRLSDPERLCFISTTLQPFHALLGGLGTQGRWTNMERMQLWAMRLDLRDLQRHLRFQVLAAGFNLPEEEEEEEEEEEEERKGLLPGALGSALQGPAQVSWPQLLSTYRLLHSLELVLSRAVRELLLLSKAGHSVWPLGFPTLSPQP
T1 sequence (looked up) 2: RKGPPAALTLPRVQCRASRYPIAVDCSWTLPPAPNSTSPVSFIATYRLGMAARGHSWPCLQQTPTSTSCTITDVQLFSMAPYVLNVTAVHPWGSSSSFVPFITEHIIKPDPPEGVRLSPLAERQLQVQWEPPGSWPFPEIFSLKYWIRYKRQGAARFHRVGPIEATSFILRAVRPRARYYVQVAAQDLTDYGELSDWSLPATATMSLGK

[3] = target: T2, recombinant OSM (Genscript-z03132) (UniProt P13725 26-234, limits assumed); test: ELISA, cytokine coated
T2 sequence (looked up): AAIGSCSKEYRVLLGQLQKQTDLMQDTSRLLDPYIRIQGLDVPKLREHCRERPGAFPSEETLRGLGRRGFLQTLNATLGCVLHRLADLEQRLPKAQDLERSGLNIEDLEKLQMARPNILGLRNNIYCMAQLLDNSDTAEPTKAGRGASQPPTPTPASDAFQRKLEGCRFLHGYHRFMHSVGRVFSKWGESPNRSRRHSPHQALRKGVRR

[4] = target: T3, recombinant CLC (R&D systems, 962-CL-050) (UniProt Q9UBD9 28-225); test: ELISA, cytokine coated
T3 sequence (looked up): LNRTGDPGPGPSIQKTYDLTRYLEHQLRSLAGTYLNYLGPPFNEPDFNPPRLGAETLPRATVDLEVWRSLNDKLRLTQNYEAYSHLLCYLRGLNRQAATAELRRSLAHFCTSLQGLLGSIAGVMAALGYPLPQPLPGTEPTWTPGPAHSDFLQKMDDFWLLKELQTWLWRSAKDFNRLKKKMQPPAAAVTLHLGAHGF

[5] = target: recombinant LIF (Peprotech, 300-05) (UniProt P15018 23-202); test: ELISA, cytokine coated
Sequence of recombinant LIF (Peprotech, 300-05) (P15018 23-202 limits assumed): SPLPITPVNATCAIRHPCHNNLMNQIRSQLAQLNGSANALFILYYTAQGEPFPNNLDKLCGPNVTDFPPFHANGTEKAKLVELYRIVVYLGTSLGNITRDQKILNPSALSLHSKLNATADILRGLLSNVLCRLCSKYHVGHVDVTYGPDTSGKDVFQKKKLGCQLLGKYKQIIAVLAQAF

[6] = target: T4, recombinant IL-31 (Peprotech, 200-31) (UniProt Q6EBC2 24-164); test: ELISA, cytokine coated
T4 sequence (looked up): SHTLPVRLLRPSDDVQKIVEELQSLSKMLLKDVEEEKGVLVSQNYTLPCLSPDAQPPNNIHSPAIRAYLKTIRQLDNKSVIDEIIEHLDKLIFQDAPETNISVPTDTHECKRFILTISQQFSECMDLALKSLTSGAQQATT

[7] = target: T5, recombinant CNTF (R&D systems, 257-NT-010) (UniProt P26441 2-200); test: ELISA, cytokine coated
T5 sequence (looked up): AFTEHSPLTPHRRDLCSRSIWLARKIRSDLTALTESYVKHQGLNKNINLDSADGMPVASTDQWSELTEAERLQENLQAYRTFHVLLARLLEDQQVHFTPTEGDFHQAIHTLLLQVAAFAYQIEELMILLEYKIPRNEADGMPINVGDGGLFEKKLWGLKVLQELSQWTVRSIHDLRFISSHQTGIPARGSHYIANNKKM

[8] = target: T6, recombinant CT-1 (R&D systems, 612-CD-010) (UniProt Q16619 2-201, limits assumed); test: ELISA, cytokine coated
T6 sequence (looked up): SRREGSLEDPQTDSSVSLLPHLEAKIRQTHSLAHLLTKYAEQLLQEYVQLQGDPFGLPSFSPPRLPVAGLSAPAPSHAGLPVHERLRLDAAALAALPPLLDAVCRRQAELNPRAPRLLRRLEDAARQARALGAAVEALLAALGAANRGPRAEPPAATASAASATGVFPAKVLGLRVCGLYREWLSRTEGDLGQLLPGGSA

[9] = target: T7, recombinant human protein antigen hu-IL-11-His tag (human, UniProt P20809 22-199); test: BLI, IL-11 (His tag) on Ni-NTA sensor, antibody as analyte
T7 construct: Expressed in CHO, Ni column and Superdex75; not shown: His tag
T7 sequence (looked up): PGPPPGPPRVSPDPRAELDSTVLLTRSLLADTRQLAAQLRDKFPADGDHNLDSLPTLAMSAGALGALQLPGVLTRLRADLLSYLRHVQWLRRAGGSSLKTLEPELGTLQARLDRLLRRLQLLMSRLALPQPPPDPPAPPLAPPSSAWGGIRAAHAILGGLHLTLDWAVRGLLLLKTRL
Protocol: Bio-Layer Interferometry (BLI) was used for binding affinity determination. […] The analytes were diluted in 7 concentration gradients, the binding time was 60 s and the dissociation time was 1000 s. The buffer was 20 mM PBS, 0.15M NaCl, 0.1% BSA, 0.05% Tween 20, pH 7.

[10] = target: T8, IL-11-Fc protein (UniProt P20809 22-199, limits assumed); test: flow competition: IL-11-Fc + antibody dilutions on membrane-IL-11R CHO cells
T8 construct: also called IL-11 recombinant protein with Fc tag; not shown: Fc tag
T8 sequence (looked up): T7 sequence (looked up)
Protocol: Then the plate was incubated with 1.5*10\hat{ }5 membrane-IL-11R CHO cells (100 ul/well) for 1 h at room temperature. After incubation, the plate was centrifuged at 1500 rpm for 5 min, washed three times with PBS, and 1:400 diluted flow secondary antibody Goat-anti-Fc-FITC (Abcam, ab98529) was added with 200 ul/well. Then, the plate was incubated at 4° C. for 1 h, centrifuged at 1500 rpm for 5 min, washed three times with PBS, resuspended cells in 180 ul PBS, and detected by flow cytometry.

binding result [1]: no binding
binding result [2]: no binding
binding result [3]: no binding
binding result [4]: no binding
binding result [5]: no binding
binding result [6]: no binding
binding result [7]: no binding
binding result [8]: no binding
Kd [9]: 0.069 nM
koff [9]: 1.21e-05 s⁻¹
kon [9]: 175000 M⁻¹ s⁻¹
EC50 [10]: 7.54 µg/mL
B1: 5-20E11-5F2 (antibody, human IgG1, kappa, V domains shown)
VH: QVQLQQSGAELVRPGTSAKISCKASDYTFTNYWLGWLKQRPGHGLEWIGHIYPGGGYTNYNEKFKGKATLTADTSSSTAYMQLSSLTSEDSAVYFCARVRSGNDALDFWGQGTSVTVSS
VL: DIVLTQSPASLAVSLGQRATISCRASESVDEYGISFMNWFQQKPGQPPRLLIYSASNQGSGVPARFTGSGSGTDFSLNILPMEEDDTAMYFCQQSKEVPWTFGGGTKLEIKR
notes: also called 5-20E11-5F2 antibody; 5-20E11-5F2 mAb
